From PMC8640741

Target: SARS-CoV-2 spike (S) protein in the postfusion state, in situ on the viral membrane (SARS-CoV-2)
Assay: cryo-EM structure

SARS-CoV-2 spike (S) protein in the postfusion state, in situ on the viral membrane (natural protein)
stoichiometry N: 3
